Measurements published in article PMC6389388 (Journal of molecular biology, 2019).

B1: His-tagged hRpn10^196–306 (domain or fragment, human, UniProt P55036 196-306, looked up)
chain: MLGLGASDFEFGVDPSADPELALALRVSMEEQRQRQEEEARRAAAASAAEAGIATTGTEDSDDALLKMTISQQEFGRTGLPDLSSMTEEEQIAYAMQMSLQGAEFGQAESA
B2: UBQLN2 UBL domain (domain or fragment, human)
chain: APAEPKIIKVTVKTPKEKEEFAVPENSSVQQFKEAISKRFKSQTDQLVLIFAGKILKDQDTLIQHGIHDGLTVHLVIK

How the values were obtained:
M1 diubiquitin = M1 diubiquitin (UniProt P0CG48 1-76; P0CG48 1-76, M1 linkage between the two ubiquitins); assay: pull-down
[1] = target: B1; assay: NMR structure
[2] = target: B1; assay: NMR titration

binding result (M1 diubiquitin)	stoichiometry N [1]	KD of the secondary binding site (UIM-2) [2] [µM]	Binder
binds			B1
	2	24.8 ± 3.1	B2
